Like-named read-outs stand apart in the source and are kept apart here.

Data on three molecules can be found in PMC3281653 (The Journal of Biological Chemistry, 2011).

The target of experiment [1] is RanGAP1-SUMO1/UBC9 (human) (UniProt P46060).
Experiment [2] has the same target. This is another data set of the same source.
In another experiment the target is UBC9 (human, UniProt P63279). As to the kind of experiment: crystal structure.
Chain of UBC9 (P63279 whole entry): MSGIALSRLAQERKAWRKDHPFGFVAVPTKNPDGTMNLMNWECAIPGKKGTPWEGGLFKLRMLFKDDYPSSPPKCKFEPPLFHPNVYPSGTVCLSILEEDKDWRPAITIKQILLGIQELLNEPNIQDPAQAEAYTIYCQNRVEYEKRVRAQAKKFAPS

Chain of RanGAP1-SUMO1/UBC9 (human) (P46060 419-578, chain 1 of 3): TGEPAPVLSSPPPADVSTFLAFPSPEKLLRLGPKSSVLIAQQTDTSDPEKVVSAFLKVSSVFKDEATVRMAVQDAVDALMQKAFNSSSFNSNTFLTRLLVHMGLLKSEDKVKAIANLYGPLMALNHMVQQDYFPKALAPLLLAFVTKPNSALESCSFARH
Chain of RanGAP1-SUMO1/UBC9 (human) (P63165 18-97, chain 2 of 3, further chain): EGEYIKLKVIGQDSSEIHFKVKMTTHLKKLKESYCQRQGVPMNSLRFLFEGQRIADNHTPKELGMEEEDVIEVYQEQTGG
Chain of RanGAP1-SUMO1/UBC9 (human) (P63279 whole entry, chain 3 of 3, further chain): as the sequence (P63279 whole entry) above

On to “IR1-M-IR2 (RanBP2 residues 2631–2771) (from UniProt P49792 2631-2771) (domain or fragment)”, for which the protease protection from SENP1: protection of RanGAP1-SUMO1 against that by IR1 in experiment [1] stood at 16 fold.
Turning to IR2SIM-IR1_(II–V) (domain or fragment), the protease protection from SENP1: protection of RanGAP1-SUMO1 against that by IR1 in experiment [2] is 144 fold.

B1: IR1 (RanBP2 residues 2631–2695) (domain or fragment)
chain: DVLIVYELTPTAEQKALATKLKLPPTFFCYKNRPDYVSEEEEDDEDFETAVKKLNGKLYLDGSEK
B1: in the experiment with UBC9, the binding result is recorded as “binds”.
